Results on one substance are retold here after patent US20250027939A1.

The experiment addresses S protein (UniProt P61823). Description: affinity column capture; EGFP fluorescence of column fractions as percent of input.
Chain of UniProt P61823 (P61823 47-150): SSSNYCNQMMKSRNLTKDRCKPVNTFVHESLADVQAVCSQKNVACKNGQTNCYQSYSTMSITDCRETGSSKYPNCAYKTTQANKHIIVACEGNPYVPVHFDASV

Take S tag-bearing target protein (EGFP): the percent of input target protein bound stood at 50%.
